# B1: CLCN6 (parent)
# chain: TGLVGLFVDFFVRLFTQLKFGVVQ
# B2: ZNF8 (parent)
# chain: RIHTGERPYMCKECGKAFSQNSSL
# Variants of: B1
# Experiment: protein stability index of a GFP-peptide fusion (GPS, HEK-293T) (PSI 1-6); higher = more stable
# Conditions: c terminus: a fixed tail appended
# 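Also: lentivirally expressed fusions sorted by FACS into six bins by GFP to DsRed ratio, PSI derived from sequencing read proportions per bin multiplied by bin number.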
row,Variant,protein stability index
1,R13T,2.19
2,R13E,2.34
3,R13N,1.91
4,R13C,2.09
5,R13D,1.83
6,R13H,2.22
7,R13F,2.96
8,R13M,3.23
9,R13K,2.73
10,R13V,1.76
11,R13Y,2.62
12,R13P,3.13
13,R13I,2.59
14,R13W,2.1
15,R13G,1.54
16,R13A,2.04
17,R13Q,1.81
18,R13S,1.84
19,F7K,1.78
20,F7D,3.18
21,F7G,1.73
22,F7I,2.57
23,F7Q,2.03
24,F7V,3.05
25,F7S,1.82
26,F7L,2.77

row,Variant,protein stability index
1,F7A,2.38
2,F7H,2.44
3,F7W,2.28
4,F7E,4.32
5,F7N,1.84
6,F7P,2.28
7,F7M,2.56
8,F7R,1.69
9,F7C,2.89
10,F7T,2.35
11,F7Y,2.54
12,D9W,1.51
13,D9S,2.15
14,D9P,1.92
15,D9T,1.97
16,D9E,2.12
17,D9R,3.51
18,D9I,2.68
19,D9F,2.17
20,D9C,1.25
21,D9Q,2.24
22,D9L,1.86
23,D9G,2.47
24,D9M,1.89
25,D9H,2.61
26,D9N,2.87

row,Variant,protein stability index
1,D9A,1.59
2,D9Y,1.89
3,D9K,3.08
4,L6Y,3.19
5,L6C,2.69
6,L6V,2.15
7,L6D,2.33
8,L6I,2.83
9,L6E,2.25
10,L6G,3.36
11,L6A,2.77
12,L6H,3.06
13,L6R,3.73
14,L6S,2.99
15,L6T,2.71
16,L6N,2.76
17,L6M,2.93
18,L6P,2.65
19,L6W,3.31
20,L6Q,3.53
21,L6K,2.44
22,L6F,2.4
23,V12S,2.45
24,V12E,1.96
25,V12T,2.08
26,V12K,1.91

row,Variant,protein stability index
1,V12R,2.04
2,V12Y,3.07
3,V12L,1.95
4,V12W,2.95
5,V12D,1.73
6,V12G,2.11
7,V12H,2.09
8,V12F,2.1
9,V12C,2.71
10,V12Q,2.52
11,V12N,1.56
12,V12M,2.47
13,V12I,2.02
14,V12A,2.11
15,V12P,1.78
16,F11M,2.16
17,F11K,3.06
18,F11C,2.93
19,F11S,1.77
20,F11V,2.65
21,F11G,1.76
22,F11R,2.75
23,F11D,4.03
24,F11I,2.29
25,F11P,2.07
26,F11W,2.35

row,Variant,protein stability index
1,F11H,2.21
2,F11A,2.84
3,F11Q,3.25
4,F11T,2.01
5,F11E,2.4
6,F11Y,2.32
7,F11L,2.32
8,F11N,2.88
9,T1P,2.59
10,T1V,1.7
11,T1E,1.92
12,T1K,2.83
13,T1Y,2.82
14,T1S,2.6
15,T1D,2.39
16,T1I,1.56
17,T1H,2.01
18,T1A,1.84
19,T1Q,2.17
20,T1N,1.8
21,T1F,2.1
22,T1M,1.99
23,T1L,1.68
24,T1C,2.14
25,T1R,3.29
26,T1W,1.73

row,Variant,protein stability index
1,T1G,2.12
2,V8S,1.76
3,V8H,2.77
4,V8N,2.27
5,V8Q,2.05
6,V8G,2.9
7,V8M,2.08
8,V8C,2.25
9,V8E,1.38
10,V8D,2.45
11,V8T,1.9
12,V8A,1.6
13,V8F,2.04
14,V8L,3.04
15,V8R,2.25
16,V8K,2.04
17,V8I,1.74
18,V8W,3.01
19,V8Y,2.79
20,V8P,1.7
21,F10W,2.7
22,F10N,2.32
23,F10E,2.19
24,F10D,2.75
25,F10S,1.8
26,F10A,2.34

row,Variant,protein stability index
1,F10Q,1.85
2,F10P,2.17
3,F10V,2.42
4,F10H,1.61
5,F10C,1.42
6,F10R,2.82
7,F10L,1.77
8,F10Y,2.27
9,F10I,2.21
10,F10K,1.98
11,F10G,1.29
12,F10T,2
13,F10M,1.81
14,V4H,2.28
15,V4R,2.19
16,V4D,4.33
17,V4L,2.33
18,V4F,2.93
19,V4Q,2.79
20,V4G,1.66
21,V4K,2.16
22,V4T,2.38
23,V4N,2.39
24,V4W,3.63
25,V4P,2.05
26,V4Y,2.07

row,Variant,protein stability index
1,V4I,2.56
2,V4S,2.63
3,V4A,1.97
4,V4C,2.36
5,V4M,2.49
6,L3G,1.4
7,L3K,3.14
8,L3A,2.15
9,L3W,3.37
10,L3T,1.65
11,L3C,2.42
12,L3M,2.73
13,L3N,2.11
14,L3D,2.07
15,L3S,2.05
16,L3Y,2.63
17,L3P,2.45
18,L3H,2.25
19,L3E,3.71
20,L3R,2.52
21,L3V,2.42
22,L3I,2.36
23,L3Q,1.49
24,L3F,2.71
25,L14M,2.27
26,L14A,1.61

row,Variant,protein stability index
1,L14P,1.68
2,L14K,2.34
3,L14D,4.06
4,L14N,1.83
5,L14R,1.86
6,L14I,2.25
7,L14H,1.85
8,L14V,2.02
9,L14T,1.99
10,L14S,2.19
11,L14C,2.1
12,L14Q,1.55
13,L14F,2.57
14,L14G,1.68
15,G5N,2
16,G5R,2.69
17,G5F,1.72
18,G5T,1.34
19,G5C,2.42
20,G5K,3.25
21,G5M,2.48
22,G5D,2.47
23,G5P,2.71
24,G5Q,2.21
25,G5H,2.16
26,G5W,1.86

row,Variant,protein stability index
1,G5E,1.78
2,G5A,2.19
3,G5S,2.21
4,G5Y,2.08
5,G2C,2.77
6,G2I,2.36
7,G2F,3.79
8,G2Y,2.9
9,G2K,2.53
10,G2N,1.84
11,G2R,2.78
12,G2M,2.66
13,G2E,1.67
14,G2L,3.27
15,G2Q,1.73
16,G2S,1.96
17,G2W,2.22
18,G2T,1.81
19,G2H,2.34
20,G2P,1.67
21,G2D,1.64

# Variants of: B2
# Experiment: as above
# Conditions: c terminus: a fixed tail appended
row,Variant,protein stability index
1,Q20W,2.5
2,Q20V,1.79
3,Q20Y,2.06
4,L24A,2.99
5,L24Y,2.18
6,L24Q,3.21
7,L24R,2.55
8,L24K,3.29
9,L24T,3.43
10,L24M,2.7
11,L24N,3.37
12,L24P,3.18
13,L24F,2.48
14,L24H,3.02
15,L24V,2.6
16,L24I,2.74
17,L24W,2.73
18,L24C,3.17
19,L24S,3.55
20,L24E,3.68
21,L24G,2.8
22,L24D,3.56
23,S23E,2.88
24,S23R,1.66
25,S23K,3.26
26,S23Y,2.03
27,S23P,2.48

row,Variant,protein stability index
1,S23F,1.77
2,S23I,2.02
3,S23G,2.3
4,S23A,2.26
5,S23D,2.8
6,S23Q,2.58
7,S23C,2.75
8,S23T,2.27
9,S23L,1.77
10,S23M,1.98
11,S23H,2.9
12,S23W,1.94
13,S23N,2.44
14,S23V,2.24
15,S22P,2.6
16,S22Q,2.58
17,S22W,2.22
18,S22I,1.91
19,S22T,2.34
20,S22K,2.4
21,S22A,2.49
22,S22E,1.98
23,S22L,2.05
24,S22N,2.37
25,S22F,1.89
26,S22G,2.68
27,S22R,2.19

row,Variant,protein stability index
1,S22M,2.22
2,S22D,2.4
3,S22H,2
4,S22C,3.07
5,S22V,1.9
6,S22Y,1.8
7,N21P,2.44
8,N21H,2.4
9,N21G,2.71
10,N21Y,1.5
11,N21F,1.8
12,N21I,2.04
13,N21C,2.46
14,N21Q,2.48
15,N21M,2.17
16,N21T,2.66
17,N21D,3.08
18,N21K,2.75
19,N21S,2.59
20,N21A,1.94
21,N21W,1.7
22,N21V,1.4
23,N21E,2.65
24,N21L,1.86
25,N21R,2.26
